In US20070244297A1:
Read-outs that look alike come from different tables or passages of the source.

Experiments:
[1] = molecular target: T1, recombinant human neuronal calcium channel α1B-1α2bβ1-2 (human), Q00975
[2] = molecular target: human neuronal calcium channel α1B-1 subunit (expressed alone) (human), Q00975
[3] = molecular target: T2, recombinant human neuronal calcium channel α1B-1α2b (human)
[4] = molecular target: recombinant human neuronal calcium channel α1B-2β1-2 (human), Q00975; experiment: 125I-ω-CgTx GVIA saturation binding to transiently transfected HEK293 cells
[5] = molecular target: recombinant human neuronal calcium channel α1B-1β1-3 (human), Q00975; experiment: as above
[6] = molecular target: T1, recombinant human neuronal calcium …; experiment: as above
[7] = molecular target: recombinant human neuronal calcium channel α1B-1β1-2 (human), Q00975; experiment: as above
[8] = molecular target: recombinant human neuronal calcium channel α1B-2α2bβ1-3 (human), Q00975; experiment: as above
[9] = molecular target: recombinant human neuronal calcium channel α1B-2β1-3 (human), Q00975; experiment: as above
[10] = molecular target: recombinant human neuronal calcium channel α1B-1α2bβ1-3 (human); experiment: as above
[11] = molecular target: T2, recombinant human neuronal calcium …; experiment: as above
[12] = molecular target: recombinant human neuronal calcium channel α1B-2α2bβ1-2 (human); experiment: as above

B1: ω-CgTx, P01522 46-73 (peptide)
peptide: CKSPGSSCSPTSYNCCRSCNPYTKRCYG
modifications: not checked
[1]
  Kd: 0.0546 nM
  binding capacity (Bmax) (sites per cell): 28700

B2: 125I-ω-CgTx GVIA, P01522 46-73 (peptide)
peptide: CKSPGSSCSPTSYNCCRSCNPYTKRCYG
modifications: not checked
[2]
  Bmax: 757 sites/cell
  Kd: 0.0317 nM
[3]
  Bmax: 2260 sites/cell
  Kd: 0.0846 nM
[4]
  Bmax: 2130 sites/cell
  Kd: 0.0164 nM
[5]
  Bmax: 8730 sites/cell
  Kd: 0.0179 nM
  fold change of surface binding against α1B-1 alone: 10 fold
[6]
  Bmax: 45300 sites/cell
  Kd: 0.0549 nM
  fold change of binding sites per cell against α1B-2α2bβ1-2: 2.5 fold
  fold change of surface receptor density against α1B-1β1-2: 8 fold
[7]
  Bmax: 5760 sites/cell
  Kd: 0.0179 nM
  fold change of surface binding against α1B-1 alone: 8 fold
[8]
  Bmax: 37700 sites/cell
  Kd: 0.0443 nM
  fold change of binding capacity against α1B-2α2bβ1-2: 2 fold
  fold change of surface receptor density against α1B-2β1-3: 13 fold
[9]
  Bmax: 2940 sites/cell
  Kd: 0.0222 nM
[10]
  Bmax: 91000 sites/cell
  Kd: 0.0532 nM
  fold change of binding capacity against α1B-1α2bβ1-2: 2 fold
  fold change of binding sites per cell against α1B-2α2bβ1-3: 2.5 fold
  fold change of surface receptor density against α1B-1β1-3: 10 fold
[11]
  fold change of binding capacity against α1B-1 alone: 3 fold
[12]
  Bmax: 19400 sites/cell
  Kd: 0.053 nM
  fold change of surface receptor density against α1B-2β1-2: 9 fold
